Results: US20210206856A1 (PANDION OPERATIONS, published 2021)
Changes are numbered by the printed parent chain.

T1: human MAdCAM expressed on cells (human, UniProt Q13477 19-382)
T1 construct: whole, on cells; also called MADCAM1
T1 sequence (looked up): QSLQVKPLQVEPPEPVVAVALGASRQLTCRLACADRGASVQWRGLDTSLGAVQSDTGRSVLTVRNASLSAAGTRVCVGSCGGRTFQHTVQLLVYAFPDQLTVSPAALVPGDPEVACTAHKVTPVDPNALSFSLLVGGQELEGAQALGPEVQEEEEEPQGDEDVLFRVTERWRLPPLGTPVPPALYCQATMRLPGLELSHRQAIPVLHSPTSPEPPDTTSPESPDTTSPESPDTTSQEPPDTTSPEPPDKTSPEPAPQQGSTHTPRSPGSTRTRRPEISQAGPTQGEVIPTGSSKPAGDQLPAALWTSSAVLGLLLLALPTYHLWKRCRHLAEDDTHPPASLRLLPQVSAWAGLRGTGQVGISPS

T2: mouse MAdCAM expressed on cells (mouse, UniProt Q61826 22-405)
T2 construct: whole, on cells
T2 sequence (looked up): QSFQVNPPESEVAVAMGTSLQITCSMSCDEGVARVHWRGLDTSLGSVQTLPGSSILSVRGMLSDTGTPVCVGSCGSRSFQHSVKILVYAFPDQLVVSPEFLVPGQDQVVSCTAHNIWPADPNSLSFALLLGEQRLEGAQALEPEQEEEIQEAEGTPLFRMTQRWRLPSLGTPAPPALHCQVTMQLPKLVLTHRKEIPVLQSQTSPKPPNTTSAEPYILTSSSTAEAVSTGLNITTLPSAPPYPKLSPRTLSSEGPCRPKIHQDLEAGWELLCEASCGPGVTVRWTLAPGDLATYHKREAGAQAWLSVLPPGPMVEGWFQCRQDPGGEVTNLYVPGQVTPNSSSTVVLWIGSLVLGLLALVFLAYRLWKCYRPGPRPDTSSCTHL

B1: MAdCAM Antibody Table 1 Clone 44 (scFv)
scFv: EVQLVESGGGLVKPGGSLRLSCAASGFTFSSYWMSWVRQAPGKGLEWVSAIGTGGGTYYAAPVKGRFTISRDDSKNTLYLQMNSLKTEDTAVYYCAREWLVPYYGMDVWGQGTTVTVSSGGGGSGGGGSGGGGSGGGGSDIQMTQSPSSLSASVGDRVTITCRASQSISRWLAWYQQKPGKAPKLLIYGASNLQSGVPSRFSGSGSGTDFTLTISSLQPEDFATYYCQQSYSTPWTFGQGTKVEIK
B2: MAdCAM Antibody Table 1 Clone 49 (scFv)
scFv: QVQLVQSGAEVKKPGASVKVSCKASGDTFTGYYIHWVRQAPGQGLEWMGWINPNSGGTNYAQKFQGRVTMTRDTSTSTVYMELSSLRSEDTAVYYCARSGLWLGSYYGMDVWGQGTLVTVSSGGGGSGGGGSGGGGSGGGGSDIQMTQSPSSLSASVGDRVTITCRASQTISIWLAWYQQKPGKAPKLLIYDASTLQSGVPSRFSGSGSGTDFTLTISSLQPEDFATYYCQQYSSYPLTFGQGTKVEIK
B3: MAdCAM Antibody Table 1 Clone 57 (scFv)
scFv: QVQLVQSGAEVKKPGASVKVSCKASGYTFTSYYMHWVRQAPGQGLEWMGIINPSGGSTSYAQKFQGRVTMTRDTSTSTVYMELSSLRSEDTAVYYCARDSVAGTGGRYYGMDVWGQGTLVTVSSGGGGSGGGGSGGGGSGGGGSDIQMTQSPSSLSASVGDRVTITCRASQGISNYFAWYQQKPGKAPKLLIYAASSLQGGVPSRFSGSGSGTDFTLTISSLQPEDFATYYCQQSYSLPYTFGQGTKLEIK
B4: MAdCAM Antibody Table 1 Clone 51 (scFv)
scFv: EVQLLESGGGLVQPGGSLRLSCAASGFTFNNYGMNWVRQAPGKGLEWVSRINSDGSSTSYADSVKGRFTISRDNSKNTLYLQMNSLRAEDTAVYYCARGAYYYYYMDVWGQGTLVTVSSGGGGSGGGGSGGGGSGGGGSEIVMTQSPATLSVSPGERATLSCRASQSVSGSYLAWYQQKPGQAPRLLIYATSSRASGIPARFSGSGSGTEFTLTISSLQSEDFAVYYCQQYYSGLTFGQGTKVEIK
B5: MAdCAM Antibody Table 1 Clone 52 (scFv)
scFv: EVQLLESGGGLVQPGGSLRLSCAASGFTFSNSDMNWVRQAPGKGLEWVAHIWNDGSQKYYADSVKGRFTISRDNSKNTLYLQMNSLRAEDTAVYYCARDRTDPGYSSAMDVWGQGTTVTVSSGGGGSGGGGSGGGGSGGGGSDIQMTQSPSSLSASVGDRVTITCRASQDIRNYLGWYQQKPGKAPKLLIYDASSLETGVPSRFSGSGSGTDFTLTISSLQPEDFATYYCQQATSLPLTFGGGTKVEIK
B6: MAdCAM Antibody Table 1 Clone 58 (scFv)
scFv: QVQLVQSGAEVKKPGASVKVSCKASGYTFTGYYMHWVRQAPGQGLEWMGIINPSGGNTKYAQKFQGRVTMTRDTSTSTVYMELSSLRSEDTAVYYCTTADYYYYMDVWGKGTTVTVSSGGGGSGGGGSGGGGSGGGGSDIQMTQSPSSLSASVGDRVTITCRASQGISNYLAWYQQKPGKAPKLLIYAASSLQSGVPSRFSGSGSGTDFTLTISSLQPEDFATYYCQQYYSNADFGQGTKVEIK
B7: MAdCAM Antibody Table 1 Clone 60 (scFv)
scFv: EVQLLESGGGLVQPGGSLRLSCAASGFTFDDYTMHWVRQAPGKGLEWVSDISGSGGSTYYADSVKGRFTISRDNSKNTLYLQMNSLRAEDTAVYYCAKDVVVAGTPLHFDYWGQGTLVTVSSGGGGSGGGGSGGGGSGGGGSDIQMTQSPSSLSASVGDRVTITCQASQDISNYLNWYQQKPGKAPKLLIYAASYLQSGVPSRFSGSGSGTDFTLTISSLQPEDFATYYCQQAHNYPITFGQGTRLEIK
B8: MAdCAM Antibody Table 1 Clone 53 (scFv)
scFv: QVQLVQSGAEVKKPGASVKVSCKASGYTFTSYDINWVRQAPGQGLEWMGWMNPNSGNTGYAQKFQGRVTMTRDTSTSTVYMELSSLRSEDTAVYYCAKDSDYSNLLWDYWGQGTLVTVSSGGGGSGGGGSGGGGSGGGGSDIQMTQSPSSLSASVGDRVTITCRASQDITNDLGWYQQKPGKAPKLLIYQASSLESGVPSRFSGSGSGTDFTLTISSLQPEDFATYYCQQSYTIPLTFGQGTKVEIK
B9: MAdCAM Antibody Table 1 Clone 50 (scFv)
scFv: QVQLVQSGAEVKKPGASVKVSCKASGYTFTSYDINWVRQAPGQGLEWMGWINPNSGTTGYAQKFQGRVTMTRDTSTSTVYMELSSLRSEDTAVYYCARSPYYYYGMDVWGQGTTVTVSSGGGGSGGGGSGGGGSGGGGSDIQMTQSPSSLSASVGDRVTITCRASHFISRWVAWYQQKPGKAPKLLIYAASTLQSGVPSRFSGSGSGTDFTLTISSLQPEDFATYYCQQSYSGISFGPGTKVDIK
B10: MAdCAM Antibody Table 1 Clone 45 (scFv)
scFv: EVQLLESGGGLVQPGGSLRLSCAASGFSVSSNYMSWVRQAPGKGLEWVAGISYDGSSKPYADSVKGRFTISRDNSKNTLYLQMNSLRAEDTAVYYCARSRGIAARPLQHWGQGTLVTVSSGGGGSGGGGSGGGGSGGGGSDIVMTQSPDSLAVSLGERATINCKSSQSVLYSSNNKNYLAWYQQKPGQPPKLLIYWASTRQSGVPDRFSGSGSGTDFTLTISSLQAEDVAVYYCHQYYGHPPTFGGGTKVEIK
B11: MAdCAM Antibody Table 1 Clone 46 (scFv)
scFv: B10 scFv with W196Q
B12: MAdCAM Antibody Table 1 Clone 55 (scFv)
scFv: QVQLVQSGAEVKKPGASVKVSCKASGYTFTSYYMHWVRQAPGQGLEWMGIIDPSGGSTSYAQKFQGRVTMTRDTSTSTVYMELSSLRSEDTAVYYCAREEWSSGGVGYFDYWGQGTLVTVSSGGGGSGGGGSGGGGSGGGGSDIQMTQSPSSLSASVGDRVTITCRASQGISSYLAWYQQKPGKAPKLLIYATSSLQTGVPSRFSGSGSGTDFTLTISSLQPEDFATYYCQQTYSIPITFGQGTRLEIK
B13: MAdCAM Antibody Table 1 Clone 47 (scFv)
scFv: EVQLLESGGGLVQPGGSLRLSCAASGFSFSDYGMHWVRQAPGKGLEWVSAISGSGGSTYYADSVKGRFTISRDNSKNTLYLQMNSLRAEDTAVYYCARDGGWQPAAILDYWGQGTLVTVSSGGGGSGGGGSGGGGSGGGGSDIQMTQSPSSLSASVGDRVTITCRASQGISNNLNWYQQKPGKAPKLLIYDASNLETGVPSRFSGSGSGTDFTLTISSLQPEDFATYYCQQSYSTPLTFGGGTKVEIK
B14: MAdCAM Antibody Table 1 Clone 54 (scFv)
scFv: EVQLLESGGGLVQPGGSLRLSCAASGFTFGDYAMSWVRQAPGKGLEWVAVVSYDGTNKYYADSVKGRFTISRDNSKNTLYLQMNSLRAEDTAVYYCAKDICSSTSCYFDLWGRGTLVTVSSGGGGSGGGGSGGGGSGGGGSDIQMTQSPSSLSASVGDRVTITCRASQNINNYVNWYQQKPGKAPKLLIYDASNLETGVPSRFSGSGSGTDFTLTISSLQPEDFATYYCQQANSFPPTFGQGTRLEIK
B15: MAdCAM Antibody Table 1 Clone 59 (scFv)
scFv: EVQLLESGGGLVQPGGSLRLSCAASGFTFSDFWMHWVRQAPGKGLEWISYISGDSGYTNYADSVKGRFTISRDNSKNTLYLQMNSLRAEDTAVYYCARDRPYYYYMDVWGKGTTVTVSSGGGGSGGGGSGGGGSGGGGSDIQMTQSPSSLSASVGDRVTITCRASQSVSRSLAWYQQKPGKAPKLLIYAASSLQSGVPSRFSGSGSGTDFTLTISSLQPEDFATYYCQQYKSYPVTFGQGTKVEIK
B16: MAdCAM Antibody Table 1 Clone 61 (scFv)
scFv: EVQLLESGGGLVQPGGSLRLSCAASEFTFSNAWMSWVRQAPGKGLEWVASISSTSAYIDYADSVKGRFTISRDNSKNTLYLQMNSLRAEDTAVYYCAREVVGATTFDYWGQGTLVTVSSGGGGSGGGGSGGGGSGGGGSDIQMTQSPSSLSASVGDRVTITCRASQSISTWLAWYQQKPGKAPKLLIYAASSLQSGVPSRFSGSGSGTDFTLTISSLQPEDFATYYCQQANAFPPTFGQGTRLEIK
B17: MAdCAM Antibody Table 1 Clone 48 (scFv)
scFv: EVQLLESGGGLVQPGGSLRLSCAASGFTFSDHGMHWVRQAPGKGLEWVSVIYGGESTYYADSVKGRFTISRDNSKNTLYLQMNSLRAEDTAVYYCARDPAVAGGGIFDYWGQGTLVTVSSGGGGSGGGGSGGGGSGGGGSDIQMTQSPSSLSASVGDRVTITCRASQGISNYLAWYQQKPGKAPKLLIYDASNLETGVPSRFSGSGSGTDFTLTISSLQPEDFATYYCQQSYSTCYTFGQGTKLEIK

Assays:
[1] = biological target: T1, human MAdCAM expressed on cells; experiment: cell binding
[2] = biological target: T2, mouse MAdCAM expressed on cells; experiment: cell binding

| Binder | binding result [1] | binding result [2] |
| --- | --- | --- |
| B1 | binds | no binding |
| B2 | binds | no binding |
| B3 | binds | no binding |
| B4 | binds | no binding |
| B5 | binds | no binding |
| B6 | binds | no binding |
| B7 | binds | binds |
| B8 | binds | no binding |
| B9 | binds | no binding |
| B10 | binds | no binding |
| B11 | binds | no binding |
| B12 | binds | no binding |
| B13 | binds | no binding |
| B14 | binds | no binding |
| B15 | binds | binds |
| B16 | binds | binds |
| B17 | binds | no binding |
